In US8557771B2, “Homodimer of insulinotropic peptide analogues and method for preparation thereof and use thereof” (Chongqing Fagen Biomedical Inc., priority 2009, dated 2013):
Bridge positions count the residues as written; N and C are the ends. Ends that are not written are not given here. I, II: the chains in the order shown.

B1: Ex4C-Ex4C: Homodimer of Ex4C(NH2) (SEQ ID NO: 3), joined by a disulfide bond between the C-terminal Cys residues (peptide)
chain 1: HGEGTFTSDLSKQMEEEAVRLFIEWLKNGGSGGSC
chain 2: B1 chain 1
modifications: disulfide homodimer, C-terminal amide; Ex4C peptide sequence
B2: Di-GLP-G8C: Homodimer of GLP-G8C (SEQ ID NO: 4), formed by oxidation at the C-terminal Cys (peptide)
chain 1: HGEGTFTSDVSSYLEGQAAKEFIAWLVKGGGGGSC
chain 2: B2 chain 1
modifications: disulfide I:35-II:35

Tested on: Balb/c mice
Experiment: Blood sugar regulation in mice in vivo after intraperitoneal drug and glucose injection
Settings: 3 hours after administration; 100 μl of 10 nmol/L drug i.p. with 200 μl of 40% glucose; FIG. 5
Protocol: After fasting overnight, mice were intraperitoneally injected respectively with 100 μl of different drugs that were dissolved to 10 nmol/L in a 10 mmol/L sodium phosphate buffer (pH6.5), and meanwhile injected with 200 μl of glucose solution (40%). Blood was sampled at 30, 60, 120, and 180 min after drug administration and blood sugar was assayed (Blood sugar meter, LifeScan, Inc.). Then, 200 μl of glucose solution (40%) was intraperitoneally injected again at 24 hours, 48 hours, 72 hours and 96 hours after drug administration, respectively. Blood was sampled at 30 and 60 min after glucose administration and blood sugar was assayed (Blood sugar meter, LifeScan, Inc.).

Molecule	blood sugar level
B1	well-regulated
B2	well-regulated
